Source: the nanobody polyreactivity screen of Harvey et al. (2022)

Assay: yeast display, Sf9 membrane polyspecificity reagent, FACS + sequencing; frameworks hold sequencing errors
How it was run: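 Nanobodies from a synthetic yeast display library (Saccharomyces cerevisiae BJ5465), induced 36–48 hours with galactose, were stained 1 hour at 4 °C with 10% biotinylated, detergent-solubilized Sf9 membrane reagent, enriched on streptavidin microbeads, then FACS-sorted. Anti-HA (expression) and streptavidin (reagent binding) fluorescence set low and high (top ~1%) gates. Polyreactivity labels come from the gate of origin. Genes were colony-PCR amplified, MiSeq 2 × 250 sequenced and filtered by CDR length.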

Sequence | polyreactivity (PSR sort gate)
QVQLVESGGGLVQAGGSLRLSCAASGSTFVFYAMGWYRQAPRKERELVAAITIGGSTYADSVKGRFTISRDNAKNTVYLQMNSLNPEDTAVYYCNADDAPSSFTTLDFTFDYWGQGTQVTVSS | low polyreactivity
QVQLVESGGGLVQAGGSLRLTCAASGLIFVDNAMGWYRQAPGKERELVAAIDSGGSTNYADSVKGRFTISRDNAKNTVYLPMNSLKPEDTAVYYCAAEYVRFYWYTSDYWGQGTQVTVSS | low polyreactivity
QVQLVESGGGLVQAGGSLRLSCAASGRIFRYYAMGWYRQAPGKERELVARISWSGGDTYYADSVKGRFTISRDNAKNTVYLQMNSLKPEDTAVYYCNAEAWYSVEYDYWGQGTQVTVSS | low polyreactivity
QVQRVESGGGLVQAGGSLRLSCAASGFTSLIYAMGWYRQAPGKESELVATITWGGGSTYADSVKGRFTISRDNAKNTVYLQMNSLKPEDTAVFYCIADIYDSWDYATVYSDRYDYWGQGTQVTVSS | low polyreactivity
QVQLQESGGGLVQAGGSLRLSCAASGSIFADVQMGWYRQAPGKERELVASINFRGTTTYNADSVKGRITISRDNSKNTVYLQMSSLKPEDTAVYYCSVGRSEGGDYAYWGQGTHVTVSS | low polyreactivity
QVQLVESGGGLVQAGGSLRLSCAASGSNVPSYAMGWYRQAPGKERELVAAINSGGGTNYADSVKGRFTISRDNAKNTVYVQMNSLKPEDTAVYYCAKSRYDYTKTEGGYWGQGTQVTVSS | low polyreactivity
QVQLVESGGGLVQAGGSLRLSCAASGRTFSVNDMGWYRQAPGKERELVAAISFSGGSTYYADSVKGRFTISRDNAKNTVYLQMNSLKPEDTAVYYCAAEAYPVRRLNLPGYDYWGQGTQVTVSS | high polyreactivity
QVQLVESGGGLVQAGGSLRLSCAASGSIFYPYTMGWYRQAPGKETEFVARITWSGGSTYYADSVKGRFTISRDNAKNTVYLQMNSLKPEDSAVYYCARVAWSESDWQKMDYWGQGTQVTVSS | high polyreactivity
QVQLVESGGGLVQAGGSLRLSCAASGSTLTRNTMGCYRQAPAKERELVATNTRSGGSTYYADSVKGRFTISRDNAKNTVYLQMNSLKPEDTAVYYCAVRRQTFRYVYPGMDYWGQGTQVTVSS | high polyreactivity
QVQLVESGGGLVQAGGSLRLSCAASGNNLSVYTMGWYRQAPGKERELVATITYSGDRTYADSVKGRFTISRDNAKNTVYLQMNSLKPEDTAVYYCAKRNFGSYIRRGHWGQGTQVTVSS | low polyreactivity
QVQLVESGGGLVQAGGSLRLSCAASGRIFRVYAMGWYRQAPGKETELVAAISRTGGSTYYADSVKGRFTISRDNAKNTVYLQMNSLKPEDTAVYYCAALVNGNFPTVDYWGQGTQVTVSS | high polyreactivity
QVQLVESGGGLVQAGGSLRLSCAASGRIFQPYAMGWYRPAPGKDRELVAAITRRAGSTYYADSVKGRFTISRDNAKYTVYLQMNSLKPEDTAVYYCAARGLYWAYEMEYWGQGTQVTVSS | low polyreactivity
QVQLVESGGGLVQAGGSLRLSCAASGFTFYYNAMGWYRQAPGKERELVAAMSGRGGSTHYADSVKGRFTISRDNAKNTVYLQMNSLKPEDTAVYYCNKVVRGSPEFDYWGQGTQVTVSS | high polyreactivity
QVQIVESGGGLVQAGGSLRLSCAASGRIFIRYSMGWYRHAPGIERELVAAISSGGRTYYADSVKGRFTISRDNATNTVYLQMNSLNPEDTAVYYCARASSIARYDNWGQGTQVTVSS | high polyreactivity
QVQLVESGGGLVQAGGSLRLSCAASGSTFTVNGMGWYRQATGKESELVAAIDGGDGSTYYADSVKGRFTISRDNAKNTVYLQMNSLKPEDTAVYYCAADPPGFTQYGYWGQGTQVTVSS | low polyreactivity
QVQLVESGGGLVQAGGSLRLSCDASGSIFPLYAMGWYRQAPGKERELVAAITSGTSTNYADSVKGRFTISRDNAKNTVYLQMNSLKPEDTAVYYCAADVYTRFWRVYRFDYWGQGTQVTVSS | low polyreactivity

Sequence | polyreactivity (PSR sort gate)
QVQLVESGGGLVQAGGSLRLSCAASGSILPYYAMGWSRQAPGKERELVATITDGTDTYYADSVKGRFTISRDNAKNTVYLQMNSLKPEDTAVYYCKADGYVYYMHEDYWGQGTQVTVSS | low polyreactivity
QVQLVESGGGLVQAGGSLRLSCAASGSIFVVYSMGWYRQAPGKERELVAGISYGDNTNYADSVKGRFTISRDNAKNTVYLQMNSLKPVDTAVYYCNADGTSRNLEGFDYWGQGTQVTVSS | low polyreactivity
QVQLVESGGGLVQAGGSLRLSCAASGITFPGNAMGWYRQAPGKERDLVAVISSGTSTNYADSVKGRFTISRDNAKNTVYLHMNSLKPEDTAVYYCAKATSSFYHYRYDYWGQGTQVTVSS | low polyreactivity
QVQLVESGGGLLQAGGSLRLSCAASGLIFANYAMGWYRQAPGKERELVAAITWSGGTTYYADSVKGRFTISRDNAKNTVYLQMNSLKPEDTAVYYCAAEVPYYQAAEYDYWGQGTQVTVSS | low polyreactivity
QVQLVESGGGLVQAGGSLRLSCAASGSIFAAYAMGWYRQAPGKERELVAAISDRGGSTYYADSVKGRFTISRDNAKNTVYLQMNSLKPEDTAVYYCATSVYDVRGGPFYYWGQGTQVTVSS | high polyreactivity
QVQLVESGGGLVQAGGSLRLSCAASGFTFPGYTMGWSRQAPGKERELVAAISTSGGSTYYADSVKGRFTISRDNAKNTVYLQMNSLKPEDTAVYYCAAAKPRVISQNIIYDYWGQGTQVTVSS | high polyreactivity
QVQLVESGGGLVQAGGSLRLSCAASGIIFRAYAMGWYRQAPGKERELVAAITSRGGSTYYADSVKGRFTISRDNAKNTVYLQMNSLKPEDTAVYYCAADFTIPYWDAKFDYWGQGTQVTVSS | low polyreactivity
QVQLVESGGGLVQARGSLRLSCAASGSTFEANSMGWYRQAPGKERELVAVLTWTGGSTYYADSVKGRFTISRDNAKNTVNLHMISLNPEDTAVEYCAADGVLPGRFFWPAHEYDYWGQGTQVTVSS | low polyreactivity
QDQHVESGGGLVQAGCSLRLSCAASGRTFTYNAMGWYRQAPGKERELVASISSRGGSTYYADSVKGRFTISRDNAKNTVYLQMNSLKPEDTAVYYCAARWRYQLSGSRLSYGKYDYWGQGTQVTVSS | high polyreactivity
QVQLVESGGGLVQAGGSLRLSCAASGRTFIGYAMGWYRPAPGKERELVAGISWSGGSTYYADSVKGRFTISRDNAKNPVSLQMNSLKPEDTAVYYCAARGRWSTEYGYWGQGTQVTVSS | low polyreactivity
QVQLVESGGGLVQAGGSLRLSCAASGIIFKSYAMGWYRQAPGKERELVAAISSGGSTYYVDSVKGRFTISRDNAKNTVYLQMNSLKPEDTAVYYCNARYKRYSYDYWGHGTQVTVSS | high polyreactivity
QVQLVESGGGLVQAGGRLRLSCAASGSIFGKYAMGWYRQAPGKERELVAAISKGGGRTSYADSVKGRFTISRDNAKNTVYLQMNSLKPEDTAVYYCNRYTQYRDRSDNHWGQGTQVTVSS | high polyreactivity
QVHLVESGGGLVQAGGSLRLSCAASGSIFVENAMGWYRQPPGKEREFVAAITRSGGSTYYADSVKGRFTISRDNAKNTVYLQMNSLKPEDTAVYYCAARIWDEQPAAGYYWGQGTQVTVSS | low polyreactivity
QVQLVESGGGLVQAGCSLRISCAASGITFGRKTMGWSRQAPGKERELVAAIDSGGNTYADSVKGRFTISRDNAKNTVYLQMNSLKPEDTAVYYCAVDGGEFSSYGYWGQGTQVTVSS | low polyreactivity
QVQLVDSGGGLVQAGGSLRLSCAASGRTLYLYAMGWYRQAPGKKRELVAGISWSGTSTYYADSVKGRFTISRDNSKNTVYLQMNSLKPEDTAFYYCAADRLYVRYGYWGQGTQVTVSS | low polyreactivity
QVQLVESGGGLVQAGGSLRLSSAASGRNFYANAMGWSRQAPGKERYFVAAISWGGGSTNYADSVKGRFTISRDNAKNTGYLQKNSQKPEDTAVYYCATGFYYYLTKTIPYEYEYWGLGTQVTVSS | low polyreactivity
